Columns and labels:
[1] = molecular target: TRAIL receptor 1 (TRAIL-R1) (Homo sapiens (Human)) (UniProt O00220)
[2] = molecular target: TRAIL receptor 1 (TRAIL-R1) (Homo sapiens (Human)) (UniProt O00220); remark: listed apart in the source
[3] = tested on: primary CLL cells; experiment: Apoptosis in freshly isolated CLL cells after depsipeptide; assay type: cell-based, human; conditions: depsipeptide 10 nM 16 h, then 6 h ligand or antibody, FIG. 2C
Experimental: (§1) After exposure of the cells for 30 min, DISC complexes were isolated and analyzed for the indicated proteins by Western blotting. To provide an unstimulated receptor control (u/s), biotinylated wt or mutant TRAIL was added to lysate from untreated cells. C: Freshly isolated cells from patients with CLL were incubated for 16 h either alone or in the presence of depsipeptide (10 nM). […] The different symbols used indicate data from six individual patients and the solid line indicates the Mean.
(§2) Ramos, an Epstein-Barr virus-negative Burkitt's lymphoma cell line, and Jurkat T cells (clone E6-1) were cultured as described (MacFarlane et al (2005 Cell Death and Differentiation vol 12 pages 773-782)). Blood samples were obtained from CLL patients, with patient consent and local ethical committee approval and CLL cells purified as described (MacFarlane et al (2002 Oncogene 21, 6809-6818). Cells were incubated for 16 h with depsipeptide (10 nM), provided by Dr. E. Sausville (NCI, USA). Cells were then cultured for a further 6 h with either HGSETR1 or HGS-ETR2, agonistic mAbs to TRAIL-R1 or -R2, respectively (Human Genome Sciences, Rockville, Md.), His-TRAIL-LE (a recombinant TRAIL with low endotoxin—Alexis Corporation, Nottingham, UK), His-TRAIL, a similar form of human recombinant TRAIL (MacFarlane et al (1997 J Biol Chem 272, 25417-25420)) but not further purified to reduce endotoxin levels or a mutant form of His-TRAIL as described (MacFarlane et al., 2005 ibid.). Cell lines were also pre-incubated for 30 min with a TRAIL-R1 blocking Ab and a TRAIL-R2 neutralizing Ab from Alexis and R&D systems, respectively, prior to exposure to TRAIL. Freshly isolated cells from patients with MCL were isolated, purified and incubated with different forms of TRAIL as described above for CLL cells. Samples were either analyzed immediately for apoptosis or stored at −80° C. for subsequent Western blotting. Other methods and reagents were as described (Inoue (2004 Cell Death Differ 11 Suppl 2, S193-206); MacFarlane et al., 2005 ibid).
(§3) Apoptosis was quantified by phosphatidylserine (PS) externalization in the presence of propidium iodide as described (MacFarlane et al., 2002 ibid.). Samples for Western blot analysis were prepared and caspase processing detected as described (Inoue et al., 2004 ibid.; MacFarlane et al., 2005 ibid.).

[4] = tested on: Ramos cells; experiment: Caspase-8 and -3 processing by Western blot in Ramos cells; assay type: cell-based; conditions: FIG. 1D
Experimental: (§4) Cells were also exposed to HGS-ETR1 or HGSETR2 (1 μg ml^−1). C: Ramos or Jurkat cells were pre-incubated for 30 min either alone or with TRAIL-R1 blocking Ab or TRAIL-R2 neutralizing Ab (5 μg ml^−1). […] D: Ramos and Jurkat cells were exposed to wt TRAIL or TRAIL mutants as described above and processing of caspase-3 and -8 determined by Western blot analysis. The asterisk indicates a non-specific band. The lower panel of the blot for detection of the caspase-8 p18 subunit was exposed for twice as long as the upper panel. Apoptosis was assessed by phosphatidylserine externalization and results expressed as the Means±SEM of at least 3 separate determinations.
as §3
(§5) To confirm that the mutants were inducing apoptosis, we examined their effects on the processing of caspase-8, the apical caspase in death receptor-induced apoptosis and caspase-3, an effector caspase.

[5] = tested on: primary MCL cells; experiment: Apoptosis in freshly isolated primary MCL cells with or without depsipeptide pre-treatment; assay type: cell-based, human; conditions: no depsipeptide, spontaneous apoptosis 23.4±2.9%
Experimental: Cell lines were also pre-incubated for 30 min with a TRAIL-R1 blocking Ab and a TRAIL-R2 neutralizing Ab from Alexis and R&D systems, respectively, prior to exposure to TRAIL. Freshly isolated cells from patients with MCL were isolated, purified and incubated with different forms of TRAIL as described above for CLL cells. Samples were either analyzed immediately for apoptosis or stored at −80° C. for subsequent Western blotting. Other methods and reagents were as described (Inoue (2004 Cell Death Differ 11 Suppl 2, S193-206); MacFarlane et al., 2005 ibid).
as §3
We also obtained three samples from patients with mantle cell lymphoma (MCL), an incurable and aggressive disease that accounts for ˜6% of all non-Hodgkin's lymphoma. There are no standard treatments for MCL and the prognosis is very poor particularly for the blastoid variant. MCL cells were isolated and exposed to the different forms of TRAIL after pre-treatment for 16 h with depsipeptide (5 nM).

[6] = tested on: Ramos cells; experiment: Apoptosis by phosphatidylserine (PS) externalization in Ramos cells; assay type: cell-based; conditions: 4 h exposure, 500 ng ml^−, Mean ± SEM of at least three determinations
Experimental: as §4, §2, §3
Ramos and Jurkat T cells (clone E6-1) were cultured as described (MacFarlane et al, 2005 ibid.). The breast tumour cell line, MCF-7 (clone F43) was cultured as described previously (MacFarlane et al., 2000 J. Cell Biol. 148, 1239-1254). Cells were cultured for either 4 h (Ramos and Jurkat) or 6 h (MCF-7) with His-TRAIL (MacFarlane et al, 1997 J Biol Chem 272, 25417-25420), HGS-ETR1 or HGS-ETR2 (Human Genome Sciences), or a mutant form of His-TRAIL (MacFarlane et al, 2005 ibid.). Samples were analyzed for apoptosis, Western blotting, or TRAIL DISC activation as described (MacFarlane et al, 2005 ibid.; MacFarlane et al. 2002 Oncogene 21, 6809-6818). Mutants of His-TRAIL (residues 95-281) were generated using the Quik-Change site-directed mutagenesis kit (Stratagene, Calif.), confirmed by DNA sequencing, expressed in E. coli and purified as described (MacFarlane et al, 1997 ibid.). For siRNA targeting of TRAIL-R1/-R2, MCF-7 cells were seeded into six-well plates immediately prior to effectene-mediated RNAi transfection with either a negative control siRNA (30 nM, Ambion, #4611), or preannealed siRNA oligonucleotides for TRAIL-R1 or TRAIL-R2 (30 nM, Ambion), with the sequence and validity described (Ren et al, 2004 Mol. Biol. Cell vol 15 pp 5064-5074). After 40 h of transfection the cells were collected and total TRAIL-R1 or TRAIL-R2 levels assessed. […]

[7] = tested on: Jurkat cells; experiment: Caspase-8 and -3 processing by Western blot in Jurkat cells; assay type: cell-based; conditions: FIG. 1D
Experimental: as §4, §3, §5

[8] = tested on: TRAIL DISC in Ramos cells; experiment: DISC analysis with biotinylated TRAIL in Ramos cells; assay type: cell-based; conditions: biotinylated ligand 500 ng ml^−1, 30 min
Experimental: as §1
(§6) Ramos or Jurkat cells (5×10^7 cells per treatment) were exposed to biotin-tagged recombinant His-TRAIL (biotinylated TRAIL) or one of its mutant forms (500 ng ml^−1) for 30 min and then DISC formation assessed as described previously (MacFarlane et al., 2002 ibid.).

[9] = tested on: TRAIL DISC in Jurkat cells; experiment: DISC analysis with biotinylated TRAIL in Jurkat cells; assay type: cell-based; conditions: biotinylated ligand 500 ng ml^−1, 30 min
Experimental: as §1, §6

HGS-ETR1 (antibody)
apoptosis of primary MCL cells after depsipeptide (5 nM, 16 h) [1]: 68.2%

His-TRAIL (wild type, residues 95-281) (from UniProt P50591) (ligand)
% PS+ cells (apoptosis by phosphatidylserine externalization), Ramos cells, 4 h, 500 ng/ml [2]: 41.8 % PS+ cells
apoptosis of primary MCL cells without depsipeptide [1]: 25.5%

B1: wild type: His-tagged human recombinant TRAIL residues 95-281, wild type sequence (protein)
chain: TSEETISTVQEKQQNISPLVRERGPQRVAAHITGTRGRSNTLSSPNSKNEKALGRKINSWESSRSGHSFLSNLHLRNGELVIHEKGFYYIYSQTYFRFQEEIKENTKNDKQMVQYIYKYTSYPDPILLMKSARNSCWSKDAEYGLYSIYQGGIFELKENDRIFVSVTNEHLIDMDHEASFFGAFLVG
modifications: biotin (site not stated) in the DISC analysis only; not biotinylated in the apoptosis assays
sensitization of CLL cells to induced apoptosis by depsipeptide [3]: sensitized CLL cells
processing of caspase-8 and caspase-3 [4]: induced the processing
apoptosis, ligand alone [5]: 25.5±3.8%
% PS+ cells, Ramos [6]: 41.8 ± 5.2%
processing of caspases-8 and -3 [7]: most potent
DISC formation: receptor bound, FADD and caspase-8 recruitment [8]: bound both TRAIL-R1 and -R2, and recruited FADD and caspase-8
DISC formation: receptor bound, FADD and caspase-8 recruitment [9]: bound TRAIL-R2 extensively in the DISC

Reference: patent US20090325867A1, “RECEPTOR-SPECIFIC TUMOUR NECROSIS FACTOR-RELATED APOPTOSIS-INDUCING LIGAND (TRAIL) VARIANTS” (MEDICAL RESEARCH COUNCIL, priority 2005, published 2009)
